The results in this text go back to PMC5730846.

The assay concerns the target recombinant Hsp90α (human) (UniProt P07900).

B1: Tsc1-D-His6 (domain or fragment)
chain: DGCSDSMVGHNEEASGHNGETKTPRPSSARGSSGSRGGGGSSSSSSELSTPEKPPHQRAGPFSSRWETTMGEASASIPTTVGSLPSSKSFLGMKARELFRNKSESQCDEDGMTSSLSESLKTELGKDLGVEAKIPLNLDGPHPSPPTPDSVGQLHIMDYNETHHEHS
For the molecule B1, the inhibition of Hsp90α ATPase activity in vitro (PiPer Phosphate Assay) by 100 nM Tsc1-D worked out at 72%.
